Among the data in article PMC12323374 are stoichiometry N values, retold here.

What all share (experiment): SEC
On the technique in general: SEC sorts molecules by how far they enter the pores of the column.

Assay [1] deals with Nsp3 Ubl1 variant D80R E81R (SARS-CoV-2).
Assay [2] addresses Nsp3 Ubl1 variant E26R E29R (SARS-CoV-2).
For assay [3], the target named is Nsp3 Ubl1 variant E49R E52R (SARS-CoV-2).
Assay [4] has as its target Nsp3 Ubl1 variant K33E K38E (SARS-CoV-2).
Assay [5] concerns the target SARS-CoV-2 Nsp3 NAB domain, longer fragment, residues 1,050-1,216 (SARS-CoV-2).
In assay [6] the target is SARS-CoV-2 Nsp3 ubiquitin-like 1 (Ubl1) domain, residues 1-111 (SARS-CoV-2).

Usually stoichiometry N stands for a count of units in the complex or per binding partner. With “Nsp3 Ubl1 variant D80R E81R (domain or fragment)”, the stoichiometry N in assay [1] turned out to be 2.

For the substance “Nsp3 Ubl1 variant E26R E29R (domain or fragment)”, in assay [2], the stoichiometry N was determined as 2.

Take “Nsp3 Ubl1 variant E49R E52R (domain or fragment)”: the stoichiometry N in assay [3] was 2.

With “Nsp3 Ubl1 variant K33E K38E (domain or fragment)”, in assay [4], the stoichiometry N worked out at 2.

For “SARS-CoV-2 Nsp3 NAB domain, longer fragment, residues 1,050-1,216 (domain or fragment)”, the stoichiometry N in assay [5] was 2.

Turning to “SARS-CoV-2 Nsp3 ubiquitin-like 1 (Ubl1) domain, residues 1-111 (domain or fragment)”, the stoichiometry N in assay [6] turned out to be 2.
